Measurements taken from publication PMC4359968 (Cancer research, 2015).

Molecular target: RAGE-Fc (human RAGE) (human, UniProt Q15109 23-342)
Assay: ELISA

RAGE-Fc (human RAGE), sequence (Q15109 23-342): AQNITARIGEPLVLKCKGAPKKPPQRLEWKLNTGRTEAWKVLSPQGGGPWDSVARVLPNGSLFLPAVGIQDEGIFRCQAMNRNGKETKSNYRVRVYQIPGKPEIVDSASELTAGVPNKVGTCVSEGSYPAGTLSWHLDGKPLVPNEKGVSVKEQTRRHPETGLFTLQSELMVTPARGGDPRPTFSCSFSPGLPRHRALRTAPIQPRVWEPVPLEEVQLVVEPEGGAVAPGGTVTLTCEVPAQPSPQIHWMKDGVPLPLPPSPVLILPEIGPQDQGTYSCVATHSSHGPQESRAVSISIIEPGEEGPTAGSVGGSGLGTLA

B1: human recombinant S100A7 (ligand, UniProt P31151 1-101, looked up)
chain: MSNTQAERSIIGMIDMFHKYTRRDDKIEKPSLLTMMKENFPNFLSACDKKGTNYLADVFEKKDKNEDKKIDFSEFLSLLGDIATDYHKQSHGAAPCSGGSQ
Q: Does B1 bind?
A: Result: binds
